Measurements: the nanobody polyreactivity screen of Harvey et al. (2022)

Assay: yeast display, Sf9 membrane polyspecificity reagent, FACS + sequencing; frameworks hold sequencing errors
Outline: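 A nanobody's polyreactivity label depends on the gate it was sorted from. Yeast display cells were stained with 10% biotinylated, detergent-solubilized Sf9 membrane reagent for 1 hour at 4 °C, enriched on streptavidin microbeads and sorted by FACS. The low and high (top ~1%) gates were set on anti-HA fluorescence for expression and streptavidin fluorescence for reagent binding.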

QVQIVESGGGLVQAGGSLRLTCAASGFTLPIYAMGWYRQAPGKEREFVAAITASGDNTYYADSVKGRFTISRDNAKNTVYLQMNSLKPEDTAVYYCAAAHWWIVGYDYWGQGTQVTVSS
polyreactivity (PSR sort gate): low polyreactivity

QVQLVESGGGLVQAGGSLRLSCAASGRIFSTNAMGWYRQAPGKERELVATIRTSGGSTYYADSVKGRFTISRDNAKNTVYLQMNSLKPEDTAVYYCAARRFLHYTTYYGTGRYDYWGQGTQVTVSS
polyreactivity (PSR sort gate): low polyreactivity

QVQVVESGGGLVQAGGSLRLSCAASGSTLSKNAMGWYRQAPGKERELVAAITLRGGSTSFADSVKGRFTISRDNAMNTVYLHMNSLKPEDTAVYYCNAVSKFDYGYWVQGTQVTVSS
polyreactivity (PSR sort gate): high polyreactivity

QVQLQERGGGLVQAGGSLRQSCAAIGYIFPYYSMGWYRQATGKERGLVACIAAGTTTNYADSVKGRFTISRDNAINTVYLQMNSLKPEDAAVYYCAALNAFKTGHWYWGQGTQVTVSS
polyreactivity (PSR sort gate): low polyreactivity

QVQLVESGGGLVQAGGSLRLSCAASGSTLGVYVMGWYRQAPGKERELVAAISRNGGSTYYADSVKARFTISRDNAKNTVYLQMNSLKPEDTAVYYCAARTVGRKACFDYWGQGTQVTVSS
polyreactivity (PSR sort gate): high polyreactivity

QVQLVESGGGFVQAGGSLRLSCAACGRIFATYAMRWYRQAPGKERELVASFSYSDGSTYADSVKGRFTISRDNAKNTVYLQMNSLKPEDTAVYYCAAERLTHWGAFAAYDYWGQGTQVTVSS
polyreactivity (PSR sort gate): low polyreactivity

QVQLVESVGGLVQAGGSLRLSCAASGFTFPWNVMGRYRQAPGKERELVAAITYDGGGTYADSVKGRFTISRDNAKNTVYLQMNSLKPEDTAVYYCNADLINGEEYDYWGQGTQVTVSS
polyreactivity (PSR sort gate): low polyreactivity

QVQLVESGGGLVQAGGSLRLSCAASGGTFYQYAMGWYIQAPGKERELVAAISRSGGRTYYADSVKGRFTISRDNAKNTVYLQMNSLIPEDTAVYYCAADDVGPPDFYYWGQGTQVTVSS
polyreactivity (PSR sort gate): high polyreactivity

QVQLVESGGGLVQAGGSLRLSCAASGYTFKTNDMGWSRQAPGKEREFVAAIDSGGNTYYADSVKGRFTISRDNAKNTVYLQMNSLKPEDTAVYYCAAYRDYQYDYWGQGTQVTVSS
polyreactivity (PSR sort gate): low polyreactivity

QVQLVESGGGLVQAGGSLRLSCAASGIFSYYAMGWSRQAPGKERELVAAISWSGGSTYYADSVKGRFTISRDNAKNTVYLQKNSLKPEDTAVYYCNKAYLTSQPRLGYWGQGTQVTVSS
polyreactivity (PSR sort gate): high polyreactivity

QVQLVESGGGLVQAGGSLRLSCAASGFTFSSNAMGWYRQAPGKERELVAAIRSDGVRTYYADSVKGRFTISRDNAKNTVYLQMNSLKPEDTAVYYCNSVSDVRIGAGDYWGQGTQVTVSS
polyreactivity (PSR sort gate): high polyreactivity

QVQLVESGGGLVQAGGSLRLSCAASGTMGWYRQAPGKERELVAANSSSDRTSYADSVKGRFTISRDNAKNTVYLQMNSLKPEDTAVYYCNASTVFAWRTSTLKLFYTAHDYWGQGTQVTVSS
polyreactivity (PSR sort gate): low polyreactivity

QVQLEESGGGLVQAGGSLRLSCAASGSIFVTNAMGWYRQAPVKERELVAAISSGGNTNYADSVKGRFTISRDNAKNTVYLQMNSLKPEDTAVYYCAKDPDKVDYVDMDYWGQGTQVTVSS
polyreactivity (PSR sort gate): low polyreactivity

QVQLVESGGGLVQAGGSLRLSCVASGFNFRGNAMGLYRQAPGKERELVATISSGGNTYYADSVKGRFTISRDNAKNTVYLQMNSLKPEDTAVYYCNASDGLPTKLNVYVEFDYWGQGTQVTVSS
polyreactivity (PSR sort gate): low polyreactivity

QVQLVESGGGLVQAGGSLRLSCAASGSTFHTYTMGWYRPAPGKERELVAGISRSGGSTYYAESVKGRFTISRDNAKNTVYLQMNSLKPEATAVYYCNALSSKTDTYDYWGQGTQVTVSS
polyreactivity (PSR sort gate): high polyreactivity

QVQLVESGGGLVHAGGSLRLSCAAYGSTSLVNAMGWYRQAPGKERELVAAITRGGNTYYADSVKGRFTISRDNAKNTVYLQMNSLKPEDTAVYYCAAEDHTEQGQYDYWGQGTQVTVSS
polyreactivity (PSR sort gate): low polyreactivity

QVQLVESGGGLVQAGGSLRLSCAASGRTFYYYAMGWYRQAPGKERELVARIRSTGRTSYADSVKGRFTISRDNAKNTVYLQMNRLKPEDTAVYYCAAKYSSTAWSRRKFDYWGQGTQVTVSS
polyreactivity (PSR sort gate): high polyreactivity

QVQLVESGGGLVQAGGSLRLSCAASGFIFGYNAMGWYRQAPGKERELVAAITWIGGTTYYADSVKGRFTISRDNAKNTVYLQMNSLKPEDTAVYYCARQRSYGRSSYSYGYDYWVQGTQVTVSS
polyreactivity (PSR sort gate): high polyreactivity

QVQLVESGGGLVQAGGNLRLSCAASGSIFPRNAMGWYRQAPGKERELVAAISWRGGSTYYADSVKGRFTISRDNAKNTVYLQMNSLKPEDTAVYYCAATTYRSRYDYWGQGTQVTVSS
polyreactivity (PSR sort gate): high polyreactivity

QVQLVESGGGLVQAGGSLRLSCAASGSISDIYAMGWYRQAPGKERELVASISSGGITNYADSVKGRFTISRDNAKNTVYLQMNSLKPEDTAVYYCAKDRYPISFFYQMEYWGQGTQVTVSS
polyreactivity (PSR sort gate): low polyreactivity

QVQLVESGGGLVQAGGSLRLSCAASGFTFVPYAMGWYRQAPGKERELVAAISYSGGSRYYADSVKGRFTISRDNAKNTVYLQMNSLKPEDTAVYYCAALRWYHYGYWGQGTQVTVSA
polyreactivity (PSR sort gate): high polyreactivity

QVQLVESGGGLVQAGGSLRLSCAASGRTIRWYAMGWYRQAPGKERELVAAITWIGGSTYYADSVKGRFTISRDNAKNTVYLQMNSLQPEDTAVYYCATDKDDVSDLGKDYAYFEYDYWGQGTQVTVSS
polyreactivity (PSR sort gate): low polyreactivity

QFQLVESGGGLVQAGGSLRLSCAASGFIIRVNAMAWYRQAPGTERQLVATITWNGGSTYYADSVKGRFTISRDNAKNTVYLQMNSLKPDDTAVYYCNRVRYRGYYPGPYSYSYDYWGQGTQVTVSS
polyreactivity (PSR sort gate): low polyreactivity

QVQLVESAGGLVQAGGSLRLSCDASGRIFQRNAMGWYRQEPGKERQFVAAISSRGGTTYYADSVKGRFTISRDNAKNTVYLQMNSLKQEDNAVYYCAAGYVHLYYFHEYYWGQGTQVTVSS
polyreactivity (PSR sort gate): high polyreactivity

QVQLVESGGGLVQAGGSLRLSCAASGGISMDNVMGWYRQAPGKERELVAAISKSGGRTFYADSVKGRFTISRDNAKNTVYLQMNSLKPEDTAVYYCAKLYKSKPYWYEHEYWGQGTQVTVSS
polyreactivity (PSR sort gate): high polyreactivity

QVQLVESGGGLVQAGGSLRLSCAASGRTFFINAMGWYRPAPGKERELVAAIRVGAGSTYYADSVKGRVTISRDNAKYTVYLQMNSLKPEDTAVYYCAKRTATSTRKYDYWGQGTQVTVSS
polyreactivity (PSR sort gate): high polyreactivity

LVQLVESGRGLVQAGGSLRLSCAASGSTFRINAMGWYRQAPGKERELVADINSGGNTTYADSVKGRFTISRDNAKNTVYLQMKSLIPEDTAVSYCAADPVFDLWEFLLDYGYDYWGQGSQVTVSS
polyreactivity (PSR sort gate): low polyreactivity

QVQLVESGGGLVQAGGSLRLSCAASGLTFSINAMGWYIQAPGKERELVAAISRSGGRTYYADSVKGRFTISRDNAKNTVYLQMNSLKPEDTAVYYCAADKTQSHYDYWGQGTQVTVSS
polyreactivity (PSR sort gate): high polyreactivity

QVQLVESGGGLVQAGGSLRLSCAASGSTFGVNAMGWYRQAPGKERELVAIITSTTYADSVKGRFTISRDNAKNTVYLQMNSLKPEDTAVYYCAKDQERVTKGRFYLLEYYWGQGTQVTVSS
polyreactivity (PSR sort gate): low polyreactivity

QVQLVESGVGLVKAGGSLRLSCAASGSTFRGYAMGWYRQAPGKERELVAAITYISDTTNYADSVKGRFTISRDNAKNTVYLQMNSLKPDDTAVYYCNAYYDGVWRYTSQETGDHWGQGTQVTVSS
polyreactivity (PSR sort gate): low polyreactivity

QVQLVESGGGLVQAGGSLRLSCAASGRIFRYYAMGWYRPAPGKERELVAAITRSGGITYYADSVKGRFTISRDNAKNTVYLQLNSLKPEDTAVYYCAVRGAGWPSVRAFGYDYWGQGTQVTVSS
polyreactivity (PSR sort gate): high polyreactivity

QDQLVESGGGLVQAGGSLRLICAASGGIFLVYTMGWYRQAPGKERELVAAITSGGSTKYADSVKGRFTISRDNAKNTVYLQMNSLKPEDTAVYYCAAYRRSWRYPSVRYYKYDYWGQGTQVTVSS
polyreactivity (PSR sort gate): high polyreactivity

QVQLVESGGGLVQAGGSLRLSCAASGFTFDSYAMGWYRQAPGKERELVASISSSGSTNYADSVKGRFTISRDNAKNTVYLQMNSLKPEDTAVYYCAAESRYPFIYEYWGQGTQVTVSS
polyreactivity (PSR sort gate): low polyreactivity

QVQLVESGGGLVQAGGSLRLSCAASGFTFTYNAMGWYRQAPGKERELVAAITANGGGTNYADSVKGRFTISRDNEKNTVYLQMNSLKPEDTAVYYCAATIVVAVFESLGFYWYTEDNYWGQGTQVTVSS
polyreactivity (PSR sort gate): low polyreactivity

QVQLVESGVGLVQAGGSLRLTCAASGSIFSVYAMGWYRPAPGKESELVAAITSSGGLTYYADSVKGRITISRDYAKNSVYLQMTSLIPEDTAVYYCATRGIPDDIARDYWGLGTQVTVSS
polyreactivity (PSR sort gate): low polyreactivity

QVQLVESGGGLVQAGGRLRLSCAASGRIFVYYAMGWYRQAPGKERELVAAINSSGGRTYYADSVKGRFTISRDNAKNTVYLQMNSLKPEDTAVYYCAARKYSYPVAAHYYWGQGTQVTVSS
polyreactivity (PSR sort gate): high polyreactivity

QVQLVESGGGLVQAGGSLRLSSAASGYTFTINTMGWYRQAPGKERELVAAITWRGGSTYYADSVKGRFSISRDNAKNTVYLQMNSLKPEDTAVYYCNKDYYITTTTFDYWGQGTQVTVSS
polyreactivity (PSR sort gate): low polyreactivity

QVQLVESGGGLVQAGGRLRLSCAASGFKYAMGWYRQGPGKDRELVAAISSGGITSYADSVKGRFTISRDNAKNTVYLQMNSLKPEDTAVYYCNARLRHSQYAYYYWGQGTQVTVSS
polyreactivity (PSR sort gate): high polyreactivity

QVQLVESGGGLVQAGGSLRLSCGASGRTFRRYAIGWYRQAPGKERELVATITSNGGSTYYADSVKGRFTISRDNAKNTVDLQLNSLTPEDTAVYYCARDLTYYRSRYDYWGQGTQVTVSS
polyreactivity (PSR sort gate): high polyreactivity

QVQLVESGGGLVQAGGSLRLSCAASGSILDIYAMGWSRQAPGKERELVAGMSTTGGSTYYADSVKGRFTISRDNAKNTVYLQMNSLKPEDTAVYYCAKDYGYQGHTRTLYWAYLEYDYWGQGTQVTVSS
polyreactivity (PSR sort gate): low polyreactivity

QVQLGESGGGLVQAGGSLRLSCAASGITFRWYAMGWYRQAPGKERELVAAITSVDSTDYADSVKGRFTISRDNAKNTVYLQMNSLKPEDTAVYYCAAQPYDWFYYYYVIFPHYEYWGQGTQVTVSS
polyreactivity (PSR sort gate): low polyreactivity

QVQLVESGGGLVQAGGSLPLSCAASGIIFSYNAKGWDRQAPGKERELDAAIRENGGSTYYADSVKGRFTISRDNAKNTVYLQMNSLKPEDTAGYYCAVATSYYAGYEYDYWGQGTQVTVSS
polyreactivity (PSR sort gate): low polyreactivity

QVQLVESGGGLVQAGGSLRLSCAASGRIFRWYAMGWYRQAPGKEREIVAAITSSGGSTYYADSVKGRFTISRDNAKNTVYLQMNSLKPEDTAFYYCAALLYLGGSYSRGYYWGQGTQVTVSS
polyreactivity (PSR sort gate): high polyreactivity
